{"source": "paper PMC3408474", "about": "“Constitutive Phosphorylation of Interferon Receptor A-Associated Signaling Proteins in Systemic Lupus Erythematosus” (PLoS ONE, 2012)", "binders": {"B1": {"name": "suppressor of cytokine signaling 1 (SOCS1) (natural protein, human (endogenous in PBMC), UniProt O15524 1-211, looked up)", "chain": "MVAHNQVAADNAVSTAAEPRRRPEPSSSSSSSPAAPARPRPCPAVPAPAPGDTHFRTFRSHADYRRITRASALLDACGFYWGPLSVHGAHERLRAEPVGTFLVRDSRQRNCFFALSVKMASGPTSIRVHFQAGRFHLDGSRESFDCLFELLEHYVAAPRRMLGAPLRQRRVRPLQELCRQRIVATVGRENLARIPLNPVLRDYLSSFPFQI", "notes": "SOCS1, endogenous in human peripheral blood mononuclear cells; detected by blot with anti-SOCS1; source: endogenous, lysate of PBMC from SLE patients or healthy controls"}}, "key": {"[1]": {"target": "T1, IFNAR1 chain of the type I interferon receptor (IFNAR) (human (endogenous in PBMC), UniProt P17181 28-557)", "T1 construct": "IFNAR1 chain of the human type I interferon receptor, endogenous in peripheral blood mononuclear cells; precipitated with mouse anti-IFNAR1 and protein A-Sepharose; source: endogenous, lysate of PBMC from SLE patients or healthy controls", "T1 sequence (looked up)": "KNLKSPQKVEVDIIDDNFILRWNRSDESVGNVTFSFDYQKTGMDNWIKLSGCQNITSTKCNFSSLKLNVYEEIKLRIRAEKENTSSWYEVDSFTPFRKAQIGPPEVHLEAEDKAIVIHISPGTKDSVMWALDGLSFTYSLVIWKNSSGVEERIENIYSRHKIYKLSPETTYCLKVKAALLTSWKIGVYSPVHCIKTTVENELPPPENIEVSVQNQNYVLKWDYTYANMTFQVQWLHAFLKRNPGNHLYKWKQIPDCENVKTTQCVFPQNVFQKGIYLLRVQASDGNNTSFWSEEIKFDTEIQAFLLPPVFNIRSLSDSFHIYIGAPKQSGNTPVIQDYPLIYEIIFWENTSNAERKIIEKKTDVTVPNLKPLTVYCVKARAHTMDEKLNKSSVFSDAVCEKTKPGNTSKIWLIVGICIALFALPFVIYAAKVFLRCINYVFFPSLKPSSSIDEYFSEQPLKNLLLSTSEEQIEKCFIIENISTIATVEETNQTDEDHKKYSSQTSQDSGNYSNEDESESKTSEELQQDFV", "experiment": "co-IP; lysates (50 µg total protein) of PBMC from SLE patients or healthy controls, cultured in medium alone or with 50 U/ml IFNβ for 0, 30 min, 1 h and 4 h; incubated overnight at 4°C with mouse anti-IFNAR1 (protein A-Sepharose 4B) and/or rabbit anti-IFNAR2 (protein G-Sepharose 4B); blotted for SOCS1, STAT2, Jak1 and Tyk2", "conditions": "partners not purified"}, "[2]": {"target": "T2, IFNAR2 chain of the type I interferon receptor (IFNAR) (human (endogenous in PBMC), UniProt P48551 27-515)", "T2 construct": "IFNAR2 chain of the human type I interferon receptor, endogenous in peripheral blood mononuclear cells; precipitated with rabbit anti-IFNAR2 and protein G-Sepharose; source: endogenous, lysate of PBMC from SLE patients or healthy controls", "T2 sequence (looked up)": "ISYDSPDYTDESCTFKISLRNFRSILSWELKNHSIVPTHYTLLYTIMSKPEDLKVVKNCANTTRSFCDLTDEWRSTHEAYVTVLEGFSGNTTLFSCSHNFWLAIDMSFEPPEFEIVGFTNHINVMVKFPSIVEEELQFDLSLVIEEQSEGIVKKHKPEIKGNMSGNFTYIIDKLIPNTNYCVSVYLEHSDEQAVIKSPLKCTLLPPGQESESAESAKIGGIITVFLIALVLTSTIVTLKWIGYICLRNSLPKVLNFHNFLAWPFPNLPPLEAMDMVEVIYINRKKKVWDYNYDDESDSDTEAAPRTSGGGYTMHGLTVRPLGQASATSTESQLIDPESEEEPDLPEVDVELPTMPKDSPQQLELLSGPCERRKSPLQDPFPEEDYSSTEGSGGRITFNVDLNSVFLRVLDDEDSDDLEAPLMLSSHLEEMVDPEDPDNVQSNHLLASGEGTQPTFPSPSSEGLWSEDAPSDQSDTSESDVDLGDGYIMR", "experiment": "co-IP; lysates (50 µg total protein) of PBMC from SLE patients or healthy controls, cultured in medium alone or with 50 U/ml IFNβ for 0, 30 min, 1 h and 4 h; incubated overnight at 4°C with mouse anti-IFNAR1 (protein A-Sepharose 4B) and/or rabbit anti-IFNAR2 (protein G-Sepharose 4B); blotted for SOCS1, STAT2, Jak1 and Tyk2", "conditions": "partners not purified"}}}
{"binder": "B1", "values": [{"measurement": "fold increase of association one hour after IFNβ over unstimulated cells", "setting": "[1]", "result": "< 1", "unit": "fold"}, {"measurement": "fold increase of association one hour after IFNβ over unstimulated cells", "setting": "[2]", "result": "~6", "unit": "fold"}]}
